Experimental data published in doi:10.1101/2024.05.14.591795.

Biological target: BCG3185c (Mycobacterium tuberculosis (title); called a Bacillus Calmette-Guérin (BCG) protein)
Assay: SEC

## BCG3185c (enzyme)
  stoichiometry N: 3
